Results on one molecule are retold here after patent publication US20220332804A1 (CSL INNOVATION, published 2022).

Assay in all cases: SPR, KD relative to WT C2;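 note: biacore SPR at 37 °C, anti-C2 mAbs captured via immobilised goat anti-human IgG, C2 alanine or serine surface mutants as analytes, 1:1 model fitted, double-referenced sensograms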
(SPR reads the build-up and loss of mass on a sensor chip optically.)

The target of one test is T1, human C2 S708A (human, UniProt P06681 21-752).
T1 sequence: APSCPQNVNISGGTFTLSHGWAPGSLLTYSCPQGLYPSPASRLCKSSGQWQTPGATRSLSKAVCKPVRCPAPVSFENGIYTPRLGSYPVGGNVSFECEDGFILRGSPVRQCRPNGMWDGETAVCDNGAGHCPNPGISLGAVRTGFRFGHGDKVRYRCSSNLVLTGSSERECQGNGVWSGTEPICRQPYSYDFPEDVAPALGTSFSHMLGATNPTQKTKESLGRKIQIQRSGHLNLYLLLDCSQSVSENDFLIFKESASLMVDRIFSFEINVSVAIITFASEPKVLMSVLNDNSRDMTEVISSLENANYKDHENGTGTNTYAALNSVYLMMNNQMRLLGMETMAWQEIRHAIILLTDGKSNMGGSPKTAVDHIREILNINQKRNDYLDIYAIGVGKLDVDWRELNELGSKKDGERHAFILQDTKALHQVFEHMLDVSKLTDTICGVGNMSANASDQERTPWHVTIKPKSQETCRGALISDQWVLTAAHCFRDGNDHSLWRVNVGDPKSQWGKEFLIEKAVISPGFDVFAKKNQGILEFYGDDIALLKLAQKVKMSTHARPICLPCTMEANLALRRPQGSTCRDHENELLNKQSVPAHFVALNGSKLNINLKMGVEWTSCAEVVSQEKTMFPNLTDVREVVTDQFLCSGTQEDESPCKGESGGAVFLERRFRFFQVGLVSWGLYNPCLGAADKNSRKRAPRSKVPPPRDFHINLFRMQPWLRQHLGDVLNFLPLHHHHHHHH

Another test concerns the target T2, human C2 E275A (human, UniProt P06681 21-752).
T2 sequence: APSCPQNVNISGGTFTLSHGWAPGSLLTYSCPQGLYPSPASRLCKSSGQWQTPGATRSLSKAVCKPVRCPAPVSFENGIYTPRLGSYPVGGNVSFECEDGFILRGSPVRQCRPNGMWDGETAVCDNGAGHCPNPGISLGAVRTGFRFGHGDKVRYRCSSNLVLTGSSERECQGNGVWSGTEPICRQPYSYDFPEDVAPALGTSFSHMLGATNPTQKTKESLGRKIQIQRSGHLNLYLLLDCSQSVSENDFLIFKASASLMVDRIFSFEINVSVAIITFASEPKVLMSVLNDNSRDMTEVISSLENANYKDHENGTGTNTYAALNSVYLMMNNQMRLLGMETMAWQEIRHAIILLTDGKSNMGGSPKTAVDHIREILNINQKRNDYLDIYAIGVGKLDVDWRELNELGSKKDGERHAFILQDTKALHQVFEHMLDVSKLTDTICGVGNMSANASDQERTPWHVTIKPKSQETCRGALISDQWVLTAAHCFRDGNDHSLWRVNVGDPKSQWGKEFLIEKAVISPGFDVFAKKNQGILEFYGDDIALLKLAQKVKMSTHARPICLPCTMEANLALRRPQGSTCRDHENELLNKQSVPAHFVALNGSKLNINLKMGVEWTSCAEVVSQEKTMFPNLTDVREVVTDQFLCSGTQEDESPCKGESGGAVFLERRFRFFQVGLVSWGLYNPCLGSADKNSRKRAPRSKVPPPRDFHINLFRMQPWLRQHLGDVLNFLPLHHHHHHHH

In the next test the target is T3, human C2 V455A (human, UniProt P06681 21-752).
T3 sequence: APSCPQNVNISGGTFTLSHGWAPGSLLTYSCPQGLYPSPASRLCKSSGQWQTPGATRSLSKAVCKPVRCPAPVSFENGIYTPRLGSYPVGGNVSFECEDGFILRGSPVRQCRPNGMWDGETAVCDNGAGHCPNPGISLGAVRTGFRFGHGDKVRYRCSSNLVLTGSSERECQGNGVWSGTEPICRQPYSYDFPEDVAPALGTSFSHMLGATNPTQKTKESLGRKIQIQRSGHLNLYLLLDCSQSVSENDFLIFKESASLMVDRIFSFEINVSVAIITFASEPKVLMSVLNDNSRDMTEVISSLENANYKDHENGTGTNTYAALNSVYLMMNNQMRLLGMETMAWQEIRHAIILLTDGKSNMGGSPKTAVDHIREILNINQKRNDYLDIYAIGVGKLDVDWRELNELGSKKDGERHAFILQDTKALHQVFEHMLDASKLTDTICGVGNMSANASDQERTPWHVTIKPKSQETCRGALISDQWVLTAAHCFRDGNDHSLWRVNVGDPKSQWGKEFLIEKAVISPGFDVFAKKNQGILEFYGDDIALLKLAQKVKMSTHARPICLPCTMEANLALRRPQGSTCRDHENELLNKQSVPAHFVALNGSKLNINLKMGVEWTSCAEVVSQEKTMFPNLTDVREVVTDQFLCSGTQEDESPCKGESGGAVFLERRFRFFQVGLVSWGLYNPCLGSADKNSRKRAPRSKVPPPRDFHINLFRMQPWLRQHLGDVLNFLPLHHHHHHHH

The next test has as its target T4, human C2 A470S (human, UniProt P06681 21-752).
T4 sequence: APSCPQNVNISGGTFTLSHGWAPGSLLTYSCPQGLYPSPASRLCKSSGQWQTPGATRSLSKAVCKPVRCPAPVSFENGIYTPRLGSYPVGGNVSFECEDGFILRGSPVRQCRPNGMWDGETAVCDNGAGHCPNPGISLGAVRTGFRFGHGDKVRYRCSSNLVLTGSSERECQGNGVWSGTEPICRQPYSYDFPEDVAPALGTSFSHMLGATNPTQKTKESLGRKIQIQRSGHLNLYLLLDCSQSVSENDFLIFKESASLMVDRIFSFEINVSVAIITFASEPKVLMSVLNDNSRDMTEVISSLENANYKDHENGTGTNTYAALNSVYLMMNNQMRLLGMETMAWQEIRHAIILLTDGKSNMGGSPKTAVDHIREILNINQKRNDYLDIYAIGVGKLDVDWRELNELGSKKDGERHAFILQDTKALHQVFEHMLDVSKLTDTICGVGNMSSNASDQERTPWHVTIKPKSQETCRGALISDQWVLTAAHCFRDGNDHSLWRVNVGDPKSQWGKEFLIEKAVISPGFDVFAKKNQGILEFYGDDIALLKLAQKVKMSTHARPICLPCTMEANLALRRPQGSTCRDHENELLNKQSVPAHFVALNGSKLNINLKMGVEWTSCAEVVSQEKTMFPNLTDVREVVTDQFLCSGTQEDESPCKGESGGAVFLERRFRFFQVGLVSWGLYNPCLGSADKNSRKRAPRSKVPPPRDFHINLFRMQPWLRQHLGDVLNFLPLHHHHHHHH

B1: RF16-226 (antibody, human IgG4 S228P, lambda)
heavy: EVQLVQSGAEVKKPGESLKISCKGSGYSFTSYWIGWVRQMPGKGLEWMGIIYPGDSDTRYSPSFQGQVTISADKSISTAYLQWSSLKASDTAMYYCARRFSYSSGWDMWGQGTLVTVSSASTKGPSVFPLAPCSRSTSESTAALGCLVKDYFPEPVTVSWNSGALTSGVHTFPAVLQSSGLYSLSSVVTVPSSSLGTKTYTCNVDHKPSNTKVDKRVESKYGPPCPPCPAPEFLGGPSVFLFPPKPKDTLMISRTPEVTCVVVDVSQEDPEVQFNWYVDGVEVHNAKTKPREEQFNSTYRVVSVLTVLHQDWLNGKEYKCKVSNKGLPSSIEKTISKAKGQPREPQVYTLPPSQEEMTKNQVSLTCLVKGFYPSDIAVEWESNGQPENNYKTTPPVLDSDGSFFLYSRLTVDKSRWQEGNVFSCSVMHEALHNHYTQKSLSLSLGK
light: SYELTQPPSVSVSPGQTARITCSGDALTSKYVAWYQQKSGLAPLLVIYEDTRRPSGIPAKFSGSSSGSVATLTISGAHGDDEADYYCYSTDASGHQRVFGGGTKLTVLSQPKAAPSVTLFPPSSEELQANKATLVCLISDFYPGAVTVAWKADGSPVKAGVETTKPSKQSNNKYAASSYLSLTPEQWKSHRSYSCQVTHEGSTVEKTVAPTECS
notes: pH-dependent anti-C2 antibody from a phage display library; also called WT
Turning to B1, the Fold diff was 2 fold in the test with human C2 S708A, 1 fold in the test with human C2 E275A, 1 fold with human C2 V455A and 1 fold with human C2 A470S.
